Source: patent US20040215400A1, “Computational design of a water-soluble analog of a protein, such as phospholamban and potassium channel KcsA” (priority 2003, published 2004)
pKd: −log10 of the molar value.

Columns and labels:
[1] = target: WSK-3 (Streptomyces lividans, UniProt P0A334, L24D/W26E/G43A/Q58A/T61S/R64D/L81R/V93E/S102V/G104A, form not given)
[2] = target: native channel (Streptomyces lividans, UniProt P0A334); conditions: read-out: reported Kdiss, Heginbotham et al. 1999; cited from earlier work
[3] = Thermal denaturation monitored by circular dichroism at 222 nm; format: physicochemical; parameters: ΔCp: unit not given here
Protocol: All of the peptides were thermally unfolded, monitoring the loss of signal at 222 nm by CD spectroscopy with increasing temperature. Scans taken with 60 s signal averaging time and equilibration of 4 min at each temperature. Concentrations of peptide are 50 and 125 μM. Data were fit to a two-state model (theoretical curves are shown) with a monomer-pentamer equilibrium. […] Previously it has been shown that global fitting of such curves obtained at multiple protein concentrations can be used to confirm the aggregation state and obtain highly accurate measures of the free energy of association. Application of these procedures to WSPLB allows an excellent fit for a monomer-pentamer equilibrium, providing the thermodynamic parameters described in Table 1. The predicted midpoint concentration for the monomer-pentamer isotherm was 4.9 μM (30 kcal/mol) at 25° C., in good agreement with the value of 6 μM (28 kcal/mol) obtained from sedimentation equilibrium.
Conditions are identical to those in FIG. 2. Scans taken with 60 s signal averaging time and equilibration of 4 min at each temperature. Concentrations of both peptides are 50 μM. […] At these concentrations the ΔTm was approximately 8° C., and the ΔΔGunf was 4 kcal/mol. In Table 1, parameters are shown for full length WSPLB and phosphorylated pWSPLB, including ΔGunf, ΔHunf, and ΔCp, all at 1 M standard state, and a reference temperature of 350 K. Tm at 50 μM is also shown. ACP was a global fitting parameter for WSPLB, but held fixed for pWSPLB at the same value as WSPLB.
Thermal unfolding curves of WSPLB (residues 21-52) from 2 to 94° C. are illustrated in FIG. 7. Scans taken with 60 s signal averaging time and equilibration of 4 minutes at each temperature. Conditions and peptide concentrations were identical to those in FIG. 2. […] At higher temperatures a main transition is observed, which depends on the concentration of the peptide. […] In contrast, the main transition corresponds to dissociation of the oligomer to unfolded monomer. The increase in stability of WSPLB (residues 21-52) to WSPLB, also seen in sedimentation equilibrium, is apparent in the increase in Tm which is 76° C. for WSPLB (residues 21-52) versus 55° C. for WSPLB at 50 μM.
All CD spectra were collected on an AVIV 62DS spectropolarimeter, using a 1 mm pathlength quartz cuvette. CD spectra of WSPLB and pWSPLB were collected in 10 mM sodium phosphate pH 7.5, 50 mM NaCl, 1 mM tris (2-carboxyethyl)-phosphine hydrochloride (TCEP-HCl), and 1 mM EDTA while those for WSPLB (residues 21-52) in the same buffer substituted with 50 mM MOPS pH 7. Each wavelength scan from 200-260 nm is an average of four scans with 4 second averaging time per data point at 25° C. All thermal melting curves were collected in the same buffers as their corresponding wavelength scans, with 60 second averaging time and 4 minute equilibration time. The elipticity was measured at 222 nm as a function of increasing temperature (2-94° C.). WSPLB and pWSPLB melting curves were analyzed with Igor Pro® 3.16 (available from WaveMetrics, Inc., Oswego, Oreg. 97035), assuming a two-state unfolding pathway.
where [θ] is mean residue elipticity (deg cm^2 dmol^−1), T° is the midpoint of the transition, ΔH° is the van't Hoff enthalpy at the midpoint (kcal mol^−1), ΔS° is the standard state entropy (kcal mol^−1 K^−1), and ΔCP is the change in heat capacity over the temperature range of the experiment (kcal mol^−1 K^−1). In fitting, the floating parameters are the initial and final [θ] values, the slopes of the folded and unfolded baselines, ΔH, ΔCP, and Tm. The parameters were globally fit to three equilibria schemes, from monomer-tetramer to hexamer, using data collected at 49 and 126 μM. Only the monomer-pentamer scheme provided an adequate fit to the data. ΔCP was held constant for pWSPLB at the value obtained for WSPLB.

[4] = Sedimentation equilibrium analytical ultracentrifugation, monomer-nmer self-association; format: physicochemical
Protocol: Sedimentation equilibrium was used to rigorously determine the association state and thermodynamics of the observed oligomers. Because WSPLB eluted as a single homogenous species from size exclusion chromatography, and its CD spectra were concentration independent above 100 μM, we initially determined its association state at 113 μM centrifuged at 35,000 rpm. In these conditions, WSPLB sedimented as a single species with a molecular weight of approximately 31,600+/−200, or a pentamer (n=5.04). […] The monomer-pentamer dissociation constant was determined to be 6.34×10^−21 M^4 with a P(1/2)=6 μM, where P(1/2) is the midpoint of the monomer-nmer isotherm in total peptide concentration. […]
Measurements were made at 25° C. using a Beckman XL-1 analytical ultracentrifuge. […] Concentrations were monitored using absorption optics at a wavelength of 275 nm and equilibrium was assessed by the absence of significant change in radial concentration gradients in scans separated by a few hours. […] An uncertainty was estimated of about +10% in the calculated molecular weight of the protein, arising largely from uncertainty in the partial specific volume, which is calculated from a weight average of individual amino acids. […] Association constants were determined similarly, keeping the monomer molecular weight and oligomer number constant, and allowing the equilibrium constant to float. […]

[5] = global fit, monomer-pentamer, 1 M standard state, reference temperature 350 K

WSK-3, sequence (P0A334 whole entry L24D/W26E/G43A/Q58A/T61S/R64D/L81R/V93E/S102V/G104A, looked up): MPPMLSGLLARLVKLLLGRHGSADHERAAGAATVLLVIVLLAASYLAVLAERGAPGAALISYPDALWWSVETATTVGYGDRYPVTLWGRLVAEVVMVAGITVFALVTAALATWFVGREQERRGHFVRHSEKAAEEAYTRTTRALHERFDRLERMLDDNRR
native channel, sequence (P0A334 whole entry): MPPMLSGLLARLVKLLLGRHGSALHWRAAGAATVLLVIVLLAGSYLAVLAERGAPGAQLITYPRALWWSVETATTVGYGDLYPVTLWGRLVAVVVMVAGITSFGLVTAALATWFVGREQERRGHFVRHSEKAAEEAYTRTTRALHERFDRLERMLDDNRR

Q: For `CC[N+](CC)(CC)CC.[Cl-]` [TEA, tetraethylammonium chloride], which “competition with AgTx2-DNP for binding to WSK-3” value ([1]; AgTx2-DNP 10 μM, WSK-3 10 μM tetramer, relative to KCl control) is on record?
A: induces dissociation of AgTx2-DNP from WSK-3 in a concentration-dependent manner

Q: What about the pKd ([1]; read-out: Kdiss for TEA, from TEA concentration for 50% total toxin dissociation, assuming Kdiss≦2 μM for AgTx2-DNP) of the same compound?
A: ≥ 1.10

Q: What about the pKd [2] of the same compound?
A: 1.66 to 2.49

Q: What does the source list for “WSPLB: computationally designed water-soluble analog of phospholamban, full length, expressed in E. coli (MDKVQYLTRSAIRRAISTIEMPQQARQNLQNLYINRCLREICQELKEIRAMLK; WSPLB)”?
A: increase of stability by phosphorylation [3]: -0.9 kcal/mol/monomer; Tm at 50 μM ([3]; 50 μM peptide, CD 222 nm, 2-94° C.): 55 °C; predicted midpoint concentration for the monomer-pentamer isotherm ([3]; at 25° C., from global fit of thermal denaturation): 4.9 µM; free energy of association (monomer-pentamer) ([3]; at 25° C., from thermal denaturation): 30 kcal/mol; ΔGunf [3, 5]: 19.2 kcal/mol; ΔHunf [3, 5]: 229 kcal/mol; ΔCp ([3]; global fitting parameter for WSPLB, held fixed for pWSPLB at the WSPLB value): 1.9; free energy of association (monomer-pentamer) ([4]; from sedimentation equilibrium): 28 kcal/mol; P(1/2), midpoint of the monomer-nmer isotherm in total peptide concentration ([4]; monomer-pentamer, sedimentation equilibrium, 25° C.): 6 µM
